Test results: publication doi:10.1101/2025.11.26.690709
Residue numbers refer to the chain shown, from its start. In names and notes the source's numbering stands. Values belong to the molecule of their own block, whether it stands above or below them.

How the values were obtained:
[1] = molecular target: CHIP-myc ΔStartCodon (c.3G>A) (human) (UniProt Q9UNE7); experiment: native gel or EMSA
[2] = molecular target: CHIP Y230Cfs*9, recombinant (human) (UniProt Q9UNE7); experiment: mass photometry
[3] = molecular target: T1, CHIP-myc wild type (human), Q9UNE7; experiment: native gel or EMSA; settings: remark: other sources report otherwise
T1 chain: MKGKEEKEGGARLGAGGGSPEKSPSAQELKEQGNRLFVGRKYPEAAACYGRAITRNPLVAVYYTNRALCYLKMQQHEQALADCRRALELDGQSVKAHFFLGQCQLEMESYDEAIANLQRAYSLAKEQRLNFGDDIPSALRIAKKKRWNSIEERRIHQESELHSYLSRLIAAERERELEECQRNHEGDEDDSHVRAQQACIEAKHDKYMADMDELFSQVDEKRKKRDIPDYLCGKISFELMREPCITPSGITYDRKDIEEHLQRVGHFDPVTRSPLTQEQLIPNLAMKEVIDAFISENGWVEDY

[4] = molecular target: T2, CHIP-myc K30A (human), Q9UNE7; experiment: native gel or EMSA; settings: remark: other sources report otherwise
T2 chain: T1 chain with K30A

percent of the protein as dimers [2]: 80% | stoichiometry N [2]: 2
Molecule: CHIP Y230Cfs*9, recombinant (from UniProt Q9UNE7-1 1-303) (natural protein)

stoichiometry N [3]: 2
B1: CHIP-myc wild type, Q9UNE7-1 1-303 (natural protein)
chain: T1 chain

The remaining lines, values behind:

Molecule: CHIP-myc ΔStartCodon (c.3G>A) (from UniProt Q9UNE7-1 1-303) (natural protein)
stoichiometry N [1]: 2

B2: CHIP-myc K30A, Q9UNE7-1 1-303 (natural protein)
chain: T1 chain with K30A
stoichiometry N [4]: 2
